T1: wild-type KaiC (Synechococcus elongatus PCC 7942, UniProt Q79PF4 1-519)
T1 construct: KaiC, circadian clock protein of Synechococcus elongatus PCC 7942; also called KaiCWT; source: Escherichia coli, Strep-tagged recombinant protein, purified
T1 sequence (looked up): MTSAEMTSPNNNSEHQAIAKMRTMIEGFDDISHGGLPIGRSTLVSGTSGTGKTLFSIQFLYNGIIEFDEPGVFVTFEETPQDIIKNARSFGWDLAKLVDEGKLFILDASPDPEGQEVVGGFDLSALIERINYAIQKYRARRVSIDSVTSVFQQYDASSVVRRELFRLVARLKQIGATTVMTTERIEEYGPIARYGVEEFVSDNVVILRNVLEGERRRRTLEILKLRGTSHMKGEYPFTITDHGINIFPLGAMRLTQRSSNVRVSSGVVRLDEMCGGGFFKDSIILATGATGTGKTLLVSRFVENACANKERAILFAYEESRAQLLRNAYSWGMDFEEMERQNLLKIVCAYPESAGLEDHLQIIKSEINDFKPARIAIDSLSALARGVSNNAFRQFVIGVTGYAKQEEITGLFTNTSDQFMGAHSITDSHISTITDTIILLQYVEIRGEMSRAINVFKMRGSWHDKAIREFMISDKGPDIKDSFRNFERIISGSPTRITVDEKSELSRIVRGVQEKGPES

T2: KaiCDE (KaiC mutant with aspartate and glutamate residues at positions 431 and 432) (Synechococcus elongatus PCC 7942, UniProt Q79PF4 1-519, aspartate at position 431 | glutamate at position 432)
T2 construct: KaiC, circadian clock protein of Synechococcus elongatus PCC 7942, mimic of hyperphosphorylated KaiC; source: Escherichia coli, Strep-tagged recombinant protein, purified
T2 sequence (looked up): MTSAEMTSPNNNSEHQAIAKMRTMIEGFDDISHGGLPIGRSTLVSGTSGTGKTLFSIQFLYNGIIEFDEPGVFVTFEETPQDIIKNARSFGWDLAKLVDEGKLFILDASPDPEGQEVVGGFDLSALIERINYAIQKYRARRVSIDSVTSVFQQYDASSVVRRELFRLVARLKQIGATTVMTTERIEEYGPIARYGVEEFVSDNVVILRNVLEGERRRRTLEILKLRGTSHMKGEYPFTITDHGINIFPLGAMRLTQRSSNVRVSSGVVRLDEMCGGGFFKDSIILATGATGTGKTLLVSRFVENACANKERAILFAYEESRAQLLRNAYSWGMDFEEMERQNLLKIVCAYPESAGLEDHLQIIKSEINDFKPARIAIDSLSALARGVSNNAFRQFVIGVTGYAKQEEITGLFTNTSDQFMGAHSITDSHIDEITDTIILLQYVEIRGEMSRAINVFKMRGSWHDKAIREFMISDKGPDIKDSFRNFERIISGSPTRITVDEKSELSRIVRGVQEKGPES

B1: KaiCDT (KaiC phospho-mimicking mutant with aspartate at Ser431) (natural protein, Synechococcus elongatus PCC 7942, UniProt Q79PF4 1-519, looked up)
chain: MTSAEMTSPNNNSEHQAIAKMRTMIEGFDDISHGGLPIGRSTLVSGTSGTGKTLFSIQFLYNGIIEFDEPGVFVTFEETPQDIIKNARSFGWDLAKLVDEGKLFILDASPDPEGQEVVGGFDLSALIERINYAIQKYRARRVSIDSVTSVFQQYDASSVVRRELFRLVARLKQIGATTVMTTERIEEYGPIARYGVEEFVSDNVVILRNVLEGERRRRTLEILKLRGTSHMKGEYPFTITDHGINIFPLGAMRLTQRSSNVRVSSGVVRLDEMCGGGFFKDSIILATGATGTGKTLLVSRFVENACANKERAILFAYEESRAQLLRNAYSWGMDFEEMERQNLLKIVCAYPESAGLEDHLQIIKSEINDFKPARIAIDSLSALARGVSNNAFRQFVIGVTGYAKQEEITGLFTNTSDQFMGAHSITDSHIDTITDTIILLQYVEIRGEMSRAINVFKMRGSWHDKAIREFMISDKGPDIKDSFRNFERIISGSPTRITVDEKSELSRIVRGVQEKGPES
notes: KaiC, circadian clock protein of Synechococcus elongatus PCC 7942, mono-phosphorylation mimic at Ser431; 72d-KaiCDT is the same protein, 72.2% deuterated, used in iCM-SANS; Printed mass of KaiC 65 kDa; also called h-KaiCDT; 72d-KaiCDT

Columns and labels:
[1] = molecular target: T1, wild-type KaiC; experiment: native gel or EMSA; BN-PAGE (NativePAGE Novex Bis-Tris gel); KaiC variants incubated with KaiB at 30 °C for 12 h; details: both partners purified
[2] = molecular target: T2, KaiCDE (KaiC mutant with aspartate and …); experiment: as above; details: both partners purified
[3] = molecular target: B1; experiment: native MS; nanoflow ESI-MS under non-denaturing conditions; 20 uM KaiCDT mixed with 3.3, 10, 20 and 30 uM KaiB (monomer), 30 °C for 4 h, exchanged into 150 mM ammonium acetate pH 7.5; details: both partners purified
[4] = molecular target: the molecule itself; experiment: as above

binding result [1]	binding result [2]	stoichiometry N [3]	Binder	stoichiometry N [4]
binds	binds	6 KaiB protomers per KaiC hexamer	KaiB (natural protein, Synechococcus elongatus PCC 7942, UniProt Q79PF5 1-102, looked up, KaiB, circadian clock protein of Synechococcus elongatus PCC 7942; printed mass of KaiB 14 kDa; Six KaiB protomers stand in the complex with the KaiC hexamer; also called h-KaiB; source: Escherichia coli, Strep-tagged recombinant protein, purified) MSPRKTYILKLYVAGNTPNSVRALKTLKNILEVEFQGVYALKVIDVLKNPQLAEEDKILATPTLAKVLPLPVRRIIGDLSDREKVLIGLDLLYGELQDSDDF	
			B1	6

From article PMC5067715, “Structural characterization of the circadian clock protein complex composed of KaiB and KaiC by inverse contrast-matching small-angle neutron scattering” (Scientific Reports, 2016)
